Measured values published in paper doi:10.1101/2023.03.10.532066.
Numbering of substitutions follows the chain as printed.

T1: GLK2 (Arabidopsis thaliana, UniProt Q9FFH0 1-386)
T1 sequence: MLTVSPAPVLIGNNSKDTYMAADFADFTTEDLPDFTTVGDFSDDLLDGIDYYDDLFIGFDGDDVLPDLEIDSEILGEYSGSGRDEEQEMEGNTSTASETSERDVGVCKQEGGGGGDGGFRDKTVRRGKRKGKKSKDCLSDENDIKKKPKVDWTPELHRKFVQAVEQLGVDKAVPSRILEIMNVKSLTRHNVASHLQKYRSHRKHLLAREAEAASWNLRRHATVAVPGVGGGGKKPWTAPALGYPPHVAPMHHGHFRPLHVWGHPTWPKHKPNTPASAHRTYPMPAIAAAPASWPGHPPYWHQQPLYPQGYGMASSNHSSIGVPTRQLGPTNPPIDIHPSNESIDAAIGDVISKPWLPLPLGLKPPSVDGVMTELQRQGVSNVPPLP

B1: pDFR-p1m (mpDFR-D-EMSA) (dsDNA)
DNA 1: ATACCAACACTAAAAAAAAAAAAAAAAAAACATAGAAGAAGAGAGCCAC
DNA 2: GTGGCTCTCTTCTTCTATGTTTTTTTTTTTTTTTTTTTAGTGTTGGTAT
B2: TTG1 probe (pTTG1-A-EMSA) (dsDNA)
DNA 1: TCTTTTTTGTCTTCTTATGTGATATCAAATTTTATGATCT
DNA 2: AGATCATAAAATTTGATATCACATAAGAAGACAAAAAAGA
B3: pTTG1m (mpTTG1-A-EMSA) (dsDNA)
DNA 1: B2 DNA 1 with G21A, T23A, T25A, C26A
DNA 2: B2 DNA 2 with G15T, A16T, A18T, C20T

What was measured:
GLK2 [1] = molecular target: T1, GLK2; assay: competition
GLK2 [2] = molecular target: T1, GLK2; assay: EMSA

Binder | binding result (GLK2 [1]) | binding result (GLK2 [2])
B1 | no binding | 
B2 |  | binds
B3 |  | no binding
